# Test results as given in patent US20200121814A1 (GENERAL HOSPITAL, published 2020).
# Bridge positions count the residues as written; N and C are the ends. Ends that are not written are not given here. * marks the point of attachment. Biotin = O=C1N[C@H]2[C@H](CS[C@H]2CCCCC(=O)*)N1
# Legend:
# [1] = target: HER3 on cells (MDA-MB-453, moderate HER3; HCC-1954, low HER3) (human) (UniProt P21860); experiment: cell binding on MDA-MB-453 cells (moderate HER3), 250 nM peptide, streptavidin-HRP and ABTS
# [2] = target: HER3 extracellular domain (ECD) (R&D Systems) (human) (UniProt P21860); experiment: ELISA of purified phage on adsorbed HER3 ECD, anti-M13-HRP and ABTS
# [3] = target: T1, HER3 extracellular domain (ECD) (R&D Systems) (human, UniProt P21860 20-643); experiment: phage binding to HER3, normalized to parent phage
# T1 construct: extracellular domain; Adsorbed to Maxisorp plates in the ELISAs; also called HER3 ECD; ERBB3
# [4] = target: bovine serum albumin (bovine) (UniProt P02769); experiment: peptide ELISA on immobilized protein, 250 nM peptide, streptavidin-HRP and ABTS
# [5] = target: T1, HER3 extracellular domain (ECD) (R&D …); experiment: peptide ELISA on immobilized ECD, 250 nM peptide, streptavidin-HRP and ABTS
# [6] = target: T2, EGFR extracellular domain (UniProt P00533 25-645, limits assumed); experiment: as above
# T2 construct: extracellular domain; Immobilized on plate for peptide ELISA
# [7] = target: T3, HER2 extracellular domain (UniProt P04626 23-652, limits assumed); experiment: as above
# T3 construct: extracellular domain; Immobilized on plate for peptide ELISA; also called ErbB2; neu
# T1 sequence (P21860 20-643): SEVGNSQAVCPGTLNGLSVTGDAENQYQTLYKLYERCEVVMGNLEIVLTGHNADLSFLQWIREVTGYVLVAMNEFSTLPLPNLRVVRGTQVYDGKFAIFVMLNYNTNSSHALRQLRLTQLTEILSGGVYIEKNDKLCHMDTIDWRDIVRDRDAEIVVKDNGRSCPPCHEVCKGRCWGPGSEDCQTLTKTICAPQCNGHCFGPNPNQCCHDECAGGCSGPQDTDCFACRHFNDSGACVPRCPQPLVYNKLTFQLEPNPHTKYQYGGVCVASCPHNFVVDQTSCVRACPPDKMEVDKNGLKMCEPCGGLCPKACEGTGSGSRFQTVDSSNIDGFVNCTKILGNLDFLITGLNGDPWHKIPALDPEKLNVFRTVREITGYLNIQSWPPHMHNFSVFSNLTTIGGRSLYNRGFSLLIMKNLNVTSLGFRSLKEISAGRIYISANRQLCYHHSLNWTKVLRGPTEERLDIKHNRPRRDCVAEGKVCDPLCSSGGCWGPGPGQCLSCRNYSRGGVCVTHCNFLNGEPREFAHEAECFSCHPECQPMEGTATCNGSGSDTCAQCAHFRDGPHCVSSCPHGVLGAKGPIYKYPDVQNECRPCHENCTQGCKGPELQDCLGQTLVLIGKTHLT
# Sequence of bovine serum albumin (bovine) (P02769 25-607 limits assumed): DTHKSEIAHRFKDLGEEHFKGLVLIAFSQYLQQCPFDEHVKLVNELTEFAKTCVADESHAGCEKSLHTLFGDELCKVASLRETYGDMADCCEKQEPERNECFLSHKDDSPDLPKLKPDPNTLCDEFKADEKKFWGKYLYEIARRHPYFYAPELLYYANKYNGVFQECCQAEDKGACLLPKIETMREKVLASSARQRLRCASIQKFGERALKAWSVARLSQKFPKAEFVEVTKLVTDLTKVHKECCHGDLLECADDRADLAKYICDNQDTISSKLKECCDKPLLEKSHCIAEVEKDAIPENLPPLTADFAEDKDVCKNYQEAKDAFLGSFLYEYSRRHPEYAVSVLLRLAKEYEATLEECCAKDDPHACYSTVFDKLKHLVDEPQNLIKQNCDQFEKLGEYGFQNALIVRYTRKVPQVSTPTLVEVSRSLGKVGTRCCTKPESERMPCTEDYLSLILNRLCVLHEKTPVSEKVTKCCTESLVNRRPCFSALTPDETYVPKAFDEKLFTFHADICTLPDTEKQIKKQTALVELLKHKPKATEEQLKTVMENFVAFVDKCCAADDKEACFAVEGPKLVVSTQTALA
# Sequence of HER3 extracellular domain (ECD) (R&D Systems) (human) (P21860 20-643): as the sequence (P21860 20-643) above
# Sequence of HER3 on cells (MDA-MB-453, moderate HER3; HCC-1954, low HER3) (human) (P21860 20-1342): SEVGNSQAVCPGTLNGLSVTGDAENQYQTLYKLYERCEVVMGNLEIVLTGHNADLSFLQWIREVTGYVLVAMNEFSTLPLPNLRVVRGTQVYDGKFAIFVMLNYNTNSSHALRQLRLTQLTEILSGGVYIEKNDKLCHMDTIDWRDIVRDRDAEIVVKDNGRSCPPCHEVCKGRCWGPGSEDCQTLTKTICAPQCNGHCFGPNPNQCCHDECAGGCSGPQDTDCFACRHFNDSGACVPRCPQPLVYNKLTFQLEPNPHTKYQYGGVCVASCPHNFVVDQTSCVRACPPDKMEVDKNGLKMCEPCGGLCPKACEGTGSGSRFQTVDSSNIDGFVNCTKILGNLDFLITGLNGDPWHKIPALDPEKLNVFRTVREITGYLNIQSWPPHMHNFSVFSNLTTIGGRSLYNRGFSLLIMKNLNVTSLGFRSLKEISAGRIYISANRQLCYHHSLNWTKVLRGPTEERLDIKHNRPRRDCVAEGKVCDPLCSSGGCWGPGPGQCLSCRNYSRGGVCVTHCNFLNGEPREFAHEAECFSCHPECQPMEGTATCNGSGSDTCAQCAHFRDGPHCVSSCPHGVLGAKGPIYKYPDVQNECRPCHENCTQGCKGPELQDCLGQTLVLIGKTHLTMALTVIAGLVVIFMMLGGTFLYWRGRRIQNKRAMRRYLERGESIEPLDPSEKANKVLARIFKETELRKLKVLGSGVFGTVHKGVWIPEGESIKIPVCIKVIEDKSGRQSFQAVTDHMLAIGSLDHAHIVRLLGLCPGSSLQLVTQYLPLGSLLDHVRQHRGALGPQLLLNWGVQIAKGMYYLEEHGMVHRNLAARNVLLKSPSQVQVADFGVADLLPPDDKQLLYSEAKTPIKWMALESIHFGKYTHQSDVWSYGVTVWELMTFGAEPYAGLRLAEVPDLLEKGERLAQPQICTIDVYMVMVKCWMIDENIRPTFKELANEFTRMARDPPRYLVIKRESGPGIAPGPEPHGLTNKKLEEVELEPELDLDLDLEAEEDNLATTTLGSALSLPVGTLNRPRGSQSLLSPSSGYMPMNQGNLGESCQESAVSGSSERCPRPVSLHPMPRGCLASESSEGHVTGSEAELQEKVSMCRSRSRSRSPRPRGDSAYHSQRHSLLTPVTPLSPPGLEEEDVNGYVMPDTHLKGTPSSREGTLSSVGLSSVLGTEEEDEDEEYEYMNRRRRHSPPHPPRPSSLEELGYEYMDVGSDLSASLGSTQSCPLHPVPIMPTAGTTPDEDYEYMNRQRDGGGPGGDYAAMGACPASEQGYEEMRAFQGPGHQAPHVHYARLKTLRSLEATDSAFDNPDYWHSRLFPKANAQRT
molecule,measurement,setting,value
control peptide,absorbance (405 nm),[1],0.12 absorbance
control phage bearing no peptide,"absorbance (background subtracted, 405 nm)",[2],0.007 absorbance
"CAPTKFRSC (peptide, not shown: large carriers) [phage M1 (alanine mutant at position 2 of the HER3P1 binding sequence)]",decrease of binding against parent (HER3P1) phage,[3],≥ 50%
"CLPTKFRAC (peptide, not shown: large carriers) [phage M7 (alanine mutant at position 8 of the HER3P1 binding sequence)]",decrease of binding against parent (HER3P1) phage,[3],≥ 50%
"CLPAKFRSC (peptide, not shown: large carriers) [phage M3 (alanine mutant at position 4 of the HER3P1 binding sequence)]",decrease of binding against parent (HER3P1) phage,[3],≥ 50%
"CLPTKFASC (peptide, not shown: large carriers) [phage M6 (alanine mutant at position 7 of the HER3P1 binding sequence)]",decrease of binding against parent (HER3P1) phage,[3],≥ 50%
"CLATKFRSC (peptide, not shown: large carriers) [phage M2 (alanine mutant at position 3 of the HER3P1 binding sequence)]",decrease of binding against parent (HER3P1) phage,[3],≥ 50%
"Biotin-GGGCLPTKFRSC (disulfide 4-12 (inferred); not fully specified, The formulas of the description print a beta A before G-G-G; also called HER3 peptide; the peptide) [HER3P1 (biotin-conjugated, N-terminal tri-glycine linker)]",absorbance (405 nm),[4],0.15 absorbance
same,absorbance (405 nm),[5],0.82 absorbance
same,absorbance (405 nm),[6],0.21 absorbance
same,absorbance (405 nm),[7],0.22 absorbance
